The values below are quoted from earlier work in paper PMC3121883.

Series [1] deals with Connexin43 C-terminal peptide (UniProt P17302). Description: fluorescence.
Series [2] has the same target. The experiment in a line: fluorescence. This is another data set of the same source.

Read-outs that look alike come from different tables or passages of the source.

Sequence of UniProt P17302 (P17302 whole entry, looked up, tested part not stated): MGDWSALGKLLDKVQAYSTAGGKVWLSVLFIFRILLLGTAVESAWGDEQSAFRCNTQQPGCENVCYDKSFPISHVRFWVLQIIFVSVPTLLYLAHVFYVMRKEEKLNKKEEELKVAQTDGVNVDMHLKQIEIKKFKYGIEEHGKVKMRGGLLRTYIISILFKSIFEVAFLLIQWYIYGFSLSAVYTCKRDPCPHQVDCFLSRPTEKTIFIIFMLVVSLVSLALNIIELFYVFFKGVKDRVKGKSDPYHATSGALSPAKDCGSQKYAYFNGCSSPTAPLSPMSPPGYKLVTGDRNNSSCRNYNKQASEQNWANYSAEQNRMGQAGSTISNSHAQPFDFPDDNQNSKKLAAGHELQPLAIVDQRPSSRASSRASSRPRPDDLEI

The Kd is the free concentration of one partner at which half of the binding sites on the other are occupied at equilibrium, for simple one-to-one binding. Take ZO-1 PDZ2 (from UniProt Q07157): the dissociation constant (Kd) in series [1] was more than 100 µM; in series [2], 7.2 µM.
